Kd data for one molecule are collected here from patent EP3338799A1 (AlderBio Holdings LLC, dated 2018).

Common to all, as to assay: surface plasmon resonance, 25 °C
The target in one test is T1, rat IL-6 (rat, UniProt P20607 25-211).
T1 construct: also called IL-6 from rat
T1 sequence (looked up): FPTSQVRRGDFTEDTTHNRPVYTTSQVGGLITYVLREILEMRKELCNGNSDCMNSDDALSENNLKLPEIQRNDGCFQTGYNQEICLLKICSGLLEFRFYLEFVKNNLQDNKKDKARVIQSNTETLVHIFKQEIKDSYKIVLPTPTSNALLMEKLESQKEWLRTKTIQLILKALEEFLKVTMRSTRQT

In a further test the target is T2, mouse IL-6 (mouse, UniProt P08505 25-211).
T2 construct: also called IL-6 from mouse
T2 sequence (looked up): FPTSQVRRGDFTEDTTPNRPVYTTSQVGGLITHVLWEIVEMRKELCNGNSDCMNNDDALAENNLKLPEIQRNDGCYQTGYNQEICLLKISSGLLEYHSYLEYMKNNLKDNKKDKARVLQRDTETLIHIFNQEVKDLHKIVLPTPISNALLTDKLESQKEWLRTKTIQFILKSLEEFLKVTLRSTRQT

A further test has as its target T3, human IL-6 (human, UniProt P05231 30-212).
T3 construct: also called huIL-6; hIL-6

The target in a further test is T4, cynomolgus monkey IL-6 (cynomolgus monkey, UniProt P79341 28-212, limits assumed).
T4 construct: also called IL-6 of cynomolgus monkey
T4 sequence (looked up): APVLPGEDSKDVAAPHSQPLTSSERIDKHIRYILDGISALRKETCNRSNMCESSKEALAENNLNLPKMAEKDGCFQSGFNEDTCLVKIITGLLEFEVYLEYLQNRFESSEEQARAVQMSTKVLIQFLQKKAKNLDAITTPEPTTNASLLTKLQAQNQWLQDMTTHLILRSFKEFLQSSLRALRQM

B1: antibody Ab1 (antibody, human IgG1, kappa, N297A, V domains shown)
VH: EVQLVESGGGLVQPGGSLRLSCAASGFSLSNYYVTWVRQAPGKGLEWVGIIYGSDETAYATSAIGRFTISRDNSKNTLYLQMNSLRAEDTAVYYCARDDSSDWDAKFNLWGQGTLVTVSS
VL: AIQMTQSPSSLSASVGDRVTITCQASQSINNELSWYQQKPGKAPKLLIYRASTLASGVPSRFSGSGSGTDFTLTISSLQPDDFATYYCQQGYSLRNIDNAFGGGTKVEIKR
notes: It is a humanized (from rabbit), full length, aglycosylated antibody with human kappa and IgG gamma-1 constant regions, produced in Pichia pastoris; also called Ab1 monoclonal antibody; anti-IL-6 antibody Ab1
What is called Kd is a measure of binding affinity in units of concentration. On to B1, for which the Kd with rat IL-6 worked out at 1.4 nM; with mouse IL-6, 0.4 nM; with human IL-6, 0.004 nM; with cynomolgus monkey IL-6, 0.031 nM.
